# Substrate: Nc1ncnc2c1ncn2[C@@H]1O[C@H](COP(=O)(O)OP(=O)(O)OP(=O)(O)O)[C@@H](O)[C@H]1O
# Experiment: DIPP1-coupled Pi-release malachite green assay
# Assay type: biochemical, Zea mays
# Settings: 25 μM InsP6, 3.5 mM MgCl2, 100 mM KCl, pH 7.2, 25 °C
protein,measurement,value
ZmITPK1 (Zea mays) (protein) MASDAAAEPSSGVTHPPRYVIGYALAPKKQQSFIQPSLVAQAASRGMDLVPVDASQPLAEQGPFHLLIHKLYGDDWRAQLVAFAARHPAVPIVDPPHAIDRLHNRISMLQVVSELDHAADQDSTFGIPSQVVVYDAAALADFGLLAALRFPLIAKPLVADGTAKSHKMSLVYHREGLGKLRPPLVLQEFVNHGGVIFKVYVVGGHVTCVKRRSLPDVSPEDDASAQGSVSFSQVSNLPTERTAEEYYGEKSLEDAVVPPAAFINQIAGGLRRALGLQLFNFDMIRDVRAGDRYLVIDINYFPGYAKMPGYETVLTDFFWEMVHKDGVGNQQEEKGANHVVVK,Km,364 µM
